Assay [1] addresses T1, human FLAG-SCAPER (recombinant, purified) (human, UniProt Q9BY12 1-1400).
T1 construct: SCAPER, human cDNA from Genscript recloned with an N-terminal FLAG tag; construct names (aa351-1400) imply 1400 residues; In the cryo-EM map only the part from residue 859 on (CTD) was resolved; also called recombinant SCAPER; source: Expi293 cells, transfected, purified (anti-FLAG resin, 3xFLAG peptide elution); not shown: FLAG, N-terminal, kept
T1 sequence: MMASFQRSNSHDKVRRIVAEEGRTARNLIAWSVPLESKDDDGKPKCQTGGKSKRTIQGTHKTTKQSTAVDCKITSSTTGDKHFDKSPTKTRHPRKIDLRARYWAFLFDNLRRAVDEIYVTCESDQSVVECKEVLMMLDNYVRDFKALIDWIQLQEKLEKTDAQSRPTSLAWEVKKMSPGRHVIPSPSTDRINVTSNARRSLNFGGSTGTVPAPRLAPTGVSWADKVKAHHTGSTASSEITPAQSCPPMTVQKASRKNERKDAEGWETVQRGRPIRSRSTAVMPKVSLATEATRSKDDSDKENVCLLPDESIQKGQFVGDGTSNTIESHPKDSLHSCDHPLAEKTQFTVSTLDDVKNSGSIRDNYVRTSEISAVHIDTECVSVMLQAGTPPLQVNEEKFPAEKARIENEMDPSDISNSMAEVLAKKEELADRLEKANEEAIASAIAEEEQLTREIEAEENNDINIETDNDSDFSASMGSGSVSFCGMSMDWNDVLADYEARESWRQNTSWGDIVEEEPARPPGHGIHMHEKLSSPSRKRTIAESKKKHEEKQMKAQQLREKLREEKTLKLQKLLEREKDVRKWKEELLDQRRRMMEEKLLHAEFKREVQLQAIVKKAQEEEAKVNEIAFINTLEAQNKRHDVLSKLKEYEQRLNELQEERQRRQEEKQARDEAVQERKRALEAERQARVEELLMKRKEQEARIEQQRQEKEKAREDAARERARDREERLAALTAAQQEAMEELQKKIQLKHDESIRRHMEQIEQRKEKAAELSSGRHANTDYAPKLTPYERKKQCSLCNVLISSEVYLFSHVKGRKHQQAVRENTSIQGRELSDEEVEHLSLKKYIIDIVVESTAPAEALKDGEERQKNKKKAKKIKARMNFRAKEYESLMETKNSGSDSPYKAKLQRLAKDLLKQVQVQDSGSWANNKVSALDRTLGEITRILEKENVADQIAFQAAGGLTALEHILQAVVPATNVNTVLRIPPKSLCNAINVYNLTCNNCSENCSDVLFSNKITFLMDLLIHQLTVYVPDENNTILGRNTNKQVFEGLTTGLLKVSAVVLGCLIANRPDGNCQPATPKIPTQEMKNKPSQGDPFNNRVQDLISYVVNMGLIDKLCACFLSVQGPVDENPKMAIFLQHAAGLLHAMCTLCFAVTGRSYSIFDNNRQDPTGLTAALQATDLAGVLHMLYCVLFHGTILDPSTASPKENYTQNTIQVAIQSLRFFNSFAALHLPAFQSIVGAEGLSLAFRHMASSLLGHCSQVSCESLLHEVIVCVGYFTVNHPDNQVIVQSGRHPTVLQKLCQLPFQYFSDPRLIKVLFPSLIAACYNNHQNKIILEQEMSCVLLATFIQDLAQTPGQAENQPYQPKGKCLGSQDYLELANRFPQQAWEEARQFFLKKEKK
The assay is described as follows: cryo-EM structure; β-tubulin RNCs from rabbit reticulocyte lysate with recombinant Strep-TTC5 and FLAG-SCAPER, affinity purified via TTC5; SCAPER with TTC5. The note with it: both partners purified.

Assay [2] concerns the target T2, human SCAPER-FLAG (recombinant, purified) (human, UniProt Q9BY12 1-1400).
T2 construct: SCAPER, human cDNA from Genscript; construct names (aa351-1400) imply 1400 residues; also called S-phase cyclin A associated protein residing in the ER; source: Expi293 cells, transfected, purified (anti-FLAG resin, 3xFLAG peptide elution); not shown: FLAG, C-terminal, kept
T2 sequence: T1 sequence
The assay is described as follows: pull-down; 100 nM SCAPER-FLAG and 150 nM Strep-TTC5 in IP buffer (50 mM HEPES pH 7.4, 100 mM KAc, 5 mM MgAc2, 1 mM DTT, 0.01% digitonin), 4°C; Streptactin magnetic beads; Coomassie. The note with it: both partners purified.

B1: human 6xHis-TEV-Twin-Strep-TTC5 (natural protein)
chain: MMADEEEEVKPILQKLQELVDQLYSFRDCYFETHSVEDAGRKQQDVQKEMEKTLQQMEEVVGSVQGKAQVLMLTGKALNVTPDYSPKAEELLSKAVKLEPELVEAWNQLGEVYWKKGDVAAAHTCFSGALTHCRNKVSLQNLSMVLRQLRTDTEDEHSHHVMDSVRQAKLAVQMDVHDGRSWYILGNSYLSLYFSTGQNPKISQQALSAYAQAEKVDRKASSNPDLHLNRATLHKYEESYGEALEGFSRAAALDPAWPEPRQREQQLLEFLDRLTSLLESKGKVKTKKLQSMLGSLRPAHLGPCSDGHYQSASGQKVTLELKPLSTLQPGVNSGAVILGKVVFSLTTEEKVPFTFGLVDSDGPCYAVMVYNIVQSWGVLIGDSVAIPEPNLRLHRIQHKGKDYSFSSVRVETPLLLVVNGKPQGSSSQAVATVASRPQCE
notes: tetratricopeptide repeat protein 5 (TTC5), human; TEV site between the 6xHis and the Twin-Strep tag; also called tetratricopeptide repeat protein 5; source: E. coli BL21(DE3), purified (Ni-NTA, Streptactin Sepharose); not shown: Twin-Strep, N-terminal, kept
Turning to B1, the binding result in assay [1] and in assay [2] was “binds” throughout.

The values are drawn from publication PMC10403363, “Mechanism of ribosome-associated mRNA degradation during tubulin autoregulation” (Molecular Cell, 2023).
